These results are taken from patent US20190153112A1 (IMMUTEP S A S, published 2019).

Test [1] concerns the target human LAG-3 protein (Lymphocyte activation gene-3) on the cell surface (human) (UniProt P18627). As to the kind of experiment: flow cytometry on CD8+ cells of SEB-stimulated PBMCs (Donor 1); antibody 1.6 ng/ml. In general terms: In flow cytometry, cells or beads pass a laser one at a time.
In test [2] the target is IMP321 (recombinant soluble human LAG-3Ig fusion protein) (human) (UniProt P18627). Kind of test: FACS, LAG-3Ig-Alexa 488 (1 µg/ml) pre-incubated with antibody 297 ng/ml, then bound to Raji (MHC class II+) cells.
Chain of IMP321 (recombinant soluble human LAG-3Ig fusion protein) (human) (P18627 23-450): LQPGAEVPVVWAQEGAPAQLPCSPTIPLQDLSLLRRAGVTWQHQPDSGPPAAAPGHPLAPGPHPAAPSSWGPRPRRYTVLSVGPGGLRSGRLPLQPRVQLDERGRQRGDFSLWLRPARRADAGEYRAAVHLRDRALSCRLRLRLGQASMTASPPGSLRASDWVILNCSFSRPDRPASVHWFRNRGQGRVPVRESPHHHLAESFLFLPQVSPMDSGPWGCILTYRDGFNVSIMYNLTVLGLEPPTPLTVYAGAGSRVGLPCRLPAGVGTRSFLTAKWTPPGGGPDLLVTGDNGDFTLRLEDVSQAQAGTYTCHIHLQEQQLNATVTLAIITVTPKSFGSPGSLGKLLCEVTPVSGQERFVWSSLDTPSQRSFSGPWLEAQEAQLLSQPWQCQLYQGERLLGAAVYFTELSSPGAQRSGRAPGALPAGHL
For test [3], the target named is human LAG-3 protein (Lymphocyte activation gene-3) on the cell surface (human) (UniProt P18627). Kind of test: flow cytometry on CD8+ cells of SEB-stimulated PBMCs (Donor 1); antibody 29 ng/ml.
Chain of human LAG-3 protein (Lymphocyte activation gene-3) on the cell surface (human) (P18627 other isoform, or with tags, fused parts or gaps): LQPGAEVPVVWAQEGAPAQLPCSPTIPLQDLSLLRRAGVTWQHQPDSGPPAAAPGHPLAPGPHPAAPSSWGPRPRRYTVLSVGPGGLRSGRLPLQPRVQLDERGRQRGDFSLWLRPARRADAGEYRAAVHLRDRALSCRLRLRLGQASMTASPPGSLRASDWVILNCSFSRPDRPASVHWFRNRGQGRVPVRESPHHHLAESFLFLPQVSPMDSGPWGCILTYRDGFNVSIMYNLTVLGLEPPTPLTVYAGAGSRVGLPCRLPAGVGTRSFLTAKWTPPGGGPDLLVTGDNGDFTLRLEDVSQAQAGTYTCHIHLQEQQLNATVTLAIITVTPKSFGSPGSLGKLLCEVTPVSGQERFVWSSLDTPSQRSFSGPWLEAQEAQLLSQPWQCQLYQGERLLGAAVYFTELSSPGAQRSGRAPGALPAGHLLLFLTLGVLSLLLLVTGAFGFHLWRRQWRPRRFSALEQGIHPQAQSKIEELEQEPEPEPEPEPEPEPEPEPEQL
Test [4] shares this target. Kind of test: flow cytometry on CD4+ cells of SEB-stimulated PBMCs (Donor 1); antibody 541 ng/ml.
Test [5] has the same target. Kind of test: flow cytometry on CD4+ cells of SEB-stimulated PBMCs (Donor 1); antibody 0 ng/ml (no-antibody background).
The target is the same in test [6]. As to the kind of experiment: flow cytometry on CD8+ cells of SEB-stimulated PBMCs, mean of three donors.
Test [7] has the same target. As to the kind of experiment: flow cytometry on LAG-3-transfected CHO cells; antibody 10000 ng/ml.
Test [8] has as its target IMP321 (recombinant soluble human LAG-3Ig fusion protein) (human) (UniProt P18627). As to the kind of experiment: cell-based or functional assay.
For test [9], the target named is human LAG-3 protein (Lymphocyte activation gene-3) on the cell surface (human) (UniProt P18627). As to the kind of experiment: flow cytometry on LAG-3-transfected CHO cells; antibody 20 ng/ml.
For test [10] the target is unchanged. Kind of test: flow cytometry on CD4+ cells of SEB-stimulated PBMCs (Donor 1); antibody 126 ng/ml.
Test [11] addresses IMP321 (recombinant soluble human LAG-3Ig fusion protein) (human) (UniProt P18627). Kind of test: Biacore, LAG-3Ig on the chip and 17B4 antibody in the running buffer.
For test [12], the target named is human LAG-3 protein (Lymphocyte activation gene-3) on the cell surface (human) (UniProt P18627). As to the kind of experiment: flow cytometry on LAG-3-transfected CHO cells; antibody 100 ng/ml.
Test [13] deals with IMP321 (recombinant soluble human LAG-3Ig fusion protein) (human) (UniProt P18627). As to the kind of experiment: FACS, LAG-3Ig-Alexa 488 (1 µg/ml) pre-incubated with antibody 27 ng/ml, then bound to Raji (MHC class II+) cells.
For test [14], the target named is human LAG-3 protein (Lymphocyte activation gene-3) on the cell surface (human) (UniProt P18627). Kind of test: flow cytometry on CD4+ cells of SEB-stimulated PBMCs (Donor 1); antibody 29 ng/ml.
Test [15] shares this target. As to the kind of experiment: flow cytometry on CD8+ cells of SEB-stimulated PBMCs (Donor 1); antibody 2326 ng/ml.

For “antagonistic anti-LAG-3 mouse monoclonal antibody 17B4”, the MFI was 309 MFI in test [1]; 1400 MFI in [3]; 1750 MFI in test [4]; 106 MFI in test [5]; 6090 MFI in test [7]; 1380 MFI in test [9]. Also, the MFI in test [10] worked out at 1240 MFI; in [12], 3170 MFI; in test [14], 675 MFI; in test [15] it was 4830 MFI. Further, the MFI of sLAG-3Ig-Alexa 488 in test [2] amounted to 73 MFI; in test [13] it was 260 MFI. Moreover, in [6], the EC50 is 1 nM. In addition, in test [8], the [CCL4] in THP-1 monocytic cells supernatant; IMP321 20 ng/ml pre-incubated with antibody 2 ng/ml was 1960 pg/mL. Also, in test [8], the [CCL4] in THP-1 monocytic cells supernatant; IMP321 20 ng/ml pre-incubated with antibody 20 ng/ml was determined as 1550 pg/mL. In test [8], the [CCL4] in THP-1 monocytic cells supernatant; IMP321 20 ng/ml pre-incubated with antibody 200 ng/ml worked out at 860 pg/mL. In addition, the [CCL4] in THP-1 monocytic cells supernatant; IMP321 20 ng/ml pre-incubated with antibody 2000 ng/ml in test [8] stood at 947 pg/mL. Also, the [CCL4] in THP-1 monocytic cells supernatant; IMP321 20 ng/ml pre-incubated with antibody 20000 ng/ml in [8] amounted to 860 pg/mL. In addition, in test [8], the [CCL4] in THP-1 monocytic cells supernatant; IMP321 20 ng/ml, antibody 0 ng/ml (no-antibody value) came to 2110 pg/mL. The Kd in test [11] turned out to be 0.121 nM. In addition, in [11], the off-rate (koff) was 0.000132 s⁻¹. In addition, in test [11], the kon was determined as 1.09e+06 M⁻¹ s⁻¹.

For orientation: EC50 means the midpoint of the concentration-response curve. High values mean weaker potency, low ones greater potency. In general, Kd refers to the free concentration of one partner at which half of the binding sites on the other are occupied at equilibrium, for simple one-to-one binding. What is called koff is the rate constant with which the complex falls apart. For orientation: kon means a measure of how fast the partners come together.
